US6423518B1, “Design and production of mutant 2,5-diketo-D-gluconic acid reductase enzymes with altered cofactor dependency” (Rutgers, the State University, priority 2000, dated 2002)
Residue numbers refer to the chain shown, from its start. Names and notes keep the numbering of the source.

How the values were obtained:
[1] = substrate: O=C(O)C(=O)[C@@H](O)[C@H](O)C(=O)CO; experiment: purified protein, by the assay type; format: biochemical, Corynebacterium sp.; details: other: Kb = Michaelis constant for 2,5-diketo-D-gluconic acid, cofactor NADH, pH 7.0, 25° C
Description: Cells containing plasmids for some of the mutant reductases were grown up on a 1 liter scale using a 10 ml inoculum from a saturated overnight culture. The cells were grown until absorbance of the culture at 600 nm was approximately 1.0. The cells were then induced by adding IPTG to a final concentration of 1 mM. The cells were harvested after growth at 37° C. for 4 hours. The cells were then pelleted by centrifugation and frozen for later use. At a later date, cells were thawed and lysed with the Bug Buster detergent (Novagen) containing Complete Protease Inhibitor Cocktail Tablets (Roche). […]
These reactions were performed in 96-well microtiter plates using a SpectraMax 190 plate reader (Molecular Devices). […] Initial rate data was collected in each well, and a standard curve was generated each day in order to correlate the change in absorbance of the reaction to a change in concentration of cofactors. […]

[2] = substrate: O=C(O)C(=O)[C@@H](O)[C@H](O)C(=O)CO; experiment: purified protein, by the assay type; format: biochemical, Corynebacterium sp.; details: other: Kb = Michaelis constant for 2,5-diketo-D-gluconic acid, cofactor NADH, pH 7.0, 25° C; remark: listed apart in the source
Description: The activities of the purified enzymes were assayed in 96-well microtiter plates on a plate reader.
Equation (1) is: [formula]
B=2,5-diketo-D-gluconic acid concentration;
Kb=Michaelis Constant for 2,5-diketo-D-gluconic acid;
Kia=Dissociation Constant for NADH;
Et=Total enzyme concentration.
However, the parameters could not be fit in this model with any accuracy, due to the large apparent value of KM for 2,5-diketo-D-gluconic acid, and the low concentration of 2,5-diketo-D-gluconic acid that was used. The 2,5-diketo-D-gluconic acid concentrations were not large enough to saturate the enzyme, so a further mathematical simplification was required. Preliminary fitting of the model indicated both kcat and Kb to be very large in comparison to Ka and Kia Therefore, the rate equation was simplified to the following equation (2): [formula]
This equation is only valid when B<<Kb.
This equation was then used to fit the kinetic data, with much better results.
Other comparisons can also be made between the different mutants using these parameters. […]
Cells containing plasmids for some of the mutant reductases were grown up on a 1 liter scale using a 10 ml inoculum from a saturated overnight culture. The cells were grown until absorbance of the culture at 600 nm was approximately 1.0. The cells were then induced by adding IPTG to a final concentration of 1 mM. The cells were harvested after growth at 37° C. for 4 hours. The cells were then pelleted by centrifugation and frozen for later use. At a later date, cells were thawed and lysed with the Bug Buster detergent (Novagen) containing Complete Protease Inhibitor Cocktail Tablets (Roche). The pH was lowered to 5.5 with 20 mM sodium acetate (NaOAc) and NaCl was added to a final concentration of 0.15 M. After 10 minutes with the detergent, the cell debris was removed by centrifugation, and the supernatant was loaded onto disposable chromatography columns containing a 10 ml bed volume of DEAE Cellulose (Sigma) for a batch weak ion exchange step. The resin was washed with 0.15 M NaCl, still in the presence of NaOAc, pH 5.5. The bound proteins were then eluted by two washes with 0.5 M NaCl. The eluted material was then diluted back to 0.15 M NaCl by the addition of more 20 mM NaOAc buffer. This was then loaded onto a 4.6 mmD/100mml PEEK column (PerSeptive Biosystems) containing 50 μm DEAE Ceramic HyperD F resin (BioSepra) using an FPLC system. The high performance resin was washed with 0.1 M NaCl and the bound proteins were eluted using a linear salt gradient up to 0.4 M NaCl. Active fractions were pooled and the pH was raised to 7.0 using 50 mM bis-Tris. The pooled fractions were then concentrated by ultrafiltration in a stirred cell unit using a polyethersulfone membrane with a 10,000 MW cut-off (Millipore). The concentrate was loaded onto a Superdex-75 gel filtration column (Pharmacia) using 50 mM bis-Tris pH 7.0 with an FPLC system. The active fractions were again pooled. A small sample from the pooled fractions was electrophoresed on a polyacrylamide gel in the presence of SDS in order to insure homogeneity of the final product.
NADPH and NADH were prepared fresh for each use in kinetic measurements. These reactions were performed in 96-well microtiter plates using a SpectraMax 190 plate reader (Molecular Devices). Varying amounts of cofactor and substrate were added to the wells and reaction was initiated by the addition of the mutant enzyme. The final volume of each reaction was 200 μl, the reactions were buffered with 50 mM bis-Tris pH 7.0, and the temperature was held at 25° C. […] Initial rate data was collected in each well, and a standard curve was generated each day in order to correlate the change in absorbance of the reaction to a change in concentration of cofactors. All measurements were performed in triplicate (at least) and the runs were averaged for use in kinetic modeling.

B1: 2,5-diketo-D-gluconic acid reductase A (Corynebacterium sp., wild type SEQ ID NO:1) variant K232M (Corynebacterium sp. ATCC 31090; K232M) (protein)
chain: MTVPSIVLNDGNSIPQLGYGVFKVPPADTQRAVEEALEVGYRHIDTAAIYGNEEGVGAAIAASGIARDDLFITTKLWNDRHDGDEPAAAIAESLAKLALDQVDLYLVHWPTPAADNYVHAWEKMIELRAAGLTRSIGVSNHLVPHLERIVAATGVVPAVNQIELHPAYQQREITDWAAAHDVKIESWGPLGQGKYDLFGAEPVTAAAAAHGKTPAQAVLRWHLQKGFVVFPMSVRRERLEENLDVFDFDLTDTEIAAIDAMDPGDGSGRVSAHPDEVD
notes: GroES fragment (N); made in house; host or cells: E. coli JM109
- kcat/Km [1]: 0.593 ± 0.023 min^−1/mm^−1

B2: 2,5-diketo-D-gluconic acid reductase A, wild type, Corynebacterium sp. (ATCC Strain No. 31090; Genbank Accession No. 4699594; SEQ ID NO:1) (Corynebacterium sp. … (protein)
chain: B1 chain with M232K
notes: as for B1
- kcat/Km [2]: 0.724 ± 0.026 min^−1/mm^−1

B3: 2,5-diketo-D-gluconic acid reductase A (Corynebacterium sp., wild type SEQ ID NO:1) variant K232S (Corynebacterium sp. ATCC 31090; K232S) (protein)
chain: B1 chain with M232S
notes: as for B1
- kcat/Km [2]: 0.318 ± 0.018 min^−1/mm^−1

B4: 2,5-diketo-D-gluconic acid reductase A (Corynebacterium sp., wild type SEQ ID NO:1) variant R238E (Corynebacterium sp. ATCC 31090; R238E) (protein)
chain: B1 chain with M232K, R238E
notes: as for B1
- kcat/Km [2]: 1.49 ± 0.24 min^−1/mm^−1

B5: 2,5-diketo-D-gluconic acid reductase A (Corynebacterium sp., wild type SEQ ID NO:1) variant R238H (Corynebacterium sp. ATCC 31090; R238H) (protein)
chain: B1 chain with M232K, R238H
notes: as for B1
- kcat/Km [2]: 3.87 ± 0.13 min^−1/mm^−1

B6: 2,5-diketo-D-gluconic acid reductase A (Corynebacterium sp., wild type SEQ ID NO:1) variant K232Q (Corynebacterium sp. ATCC 31090; K232Q) (protein)
chain: B1 chain with M232Q
notes: as for B1
- kcat/Km [1]: 0.634 ± 0.037 min^−1/mm^−1

B7: 2,5-diketo-D-gluconic acid reductase A (Corynebacterium sp., wild type SEQ ID NO:1) variant R235G (Corynebacterium sp. ATCC 31090; R235G) (protein)
chain: B1 chain with M232K, R235G
notes: as for B1
- kcat/Km [2]: 3.58 ± 0.023 min^−1/mm^−1

B8: 2,5-diketo-D-gluconic acid reductase A (Corynebacterium sp., wild type SEQ ID NO:1) variant K232G (Corynebacterium sp. ATCC 31090; K232G) (protein)
chain: B1 chain with M232G
notes: as for B1
- kcat/Km [2]: 0.874 ± 0.028 min^−1/mm^−1

B9: 2,5-diketo-D-gluconic acid reductase A (Corynebacterium sp., wild type SEQ ID NO:1) variant R235T (Corynebacterium sp. ATCC 31090; R235T) (protein)
chain: B1 chain with M232K, R235T
notes: as for B1
- kcat/Km [2]: 1.34 ± 0.28 min^−1/mm^−1
